Source: patent US20210228499A1 (DUKE UNIVERSITY, published 2021)

How the values were obtained:
[1] = biological target: T1, human GPR37 (hGPR37-V5, expressed in transfected HEK293 cells) (human, UniProt O15354 27-613); assay: cell-based or functional assay
T1 sequence: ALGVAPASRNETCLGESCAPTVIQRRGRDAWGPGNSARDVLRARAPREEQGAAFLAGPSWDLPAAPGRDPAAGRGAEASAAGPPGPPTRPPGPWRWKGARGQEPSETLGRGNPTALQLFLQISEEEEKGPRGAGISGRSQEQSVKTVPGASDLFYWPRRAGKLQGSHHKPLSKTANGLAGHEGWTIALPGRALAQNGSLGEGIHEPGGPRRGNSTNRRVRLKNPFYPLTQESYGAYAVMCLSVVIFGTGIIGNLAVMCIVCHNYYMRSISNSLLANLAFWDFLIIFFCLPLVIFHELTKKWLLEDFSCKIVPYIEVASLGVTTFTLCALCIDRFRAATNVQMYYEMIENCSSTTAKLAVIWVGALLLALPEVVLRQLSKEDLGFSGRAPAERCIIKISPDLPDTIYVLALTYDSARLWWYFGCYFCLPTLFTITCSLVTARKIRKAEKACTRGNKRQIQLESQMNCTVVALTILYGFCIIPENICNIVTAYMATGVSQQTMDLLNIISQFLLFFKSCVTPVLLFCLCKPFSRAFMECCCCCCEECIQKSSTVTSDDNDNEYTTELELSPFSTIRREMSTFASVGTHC

[2] = biological target: T2, mouse GPR37 (native, on peritoneal macrophages and in tissues of wild-type mice) (mouse, UniProt Q9QY42 27-600); assay: cell-based or functional assay
T2 sequence (looked up): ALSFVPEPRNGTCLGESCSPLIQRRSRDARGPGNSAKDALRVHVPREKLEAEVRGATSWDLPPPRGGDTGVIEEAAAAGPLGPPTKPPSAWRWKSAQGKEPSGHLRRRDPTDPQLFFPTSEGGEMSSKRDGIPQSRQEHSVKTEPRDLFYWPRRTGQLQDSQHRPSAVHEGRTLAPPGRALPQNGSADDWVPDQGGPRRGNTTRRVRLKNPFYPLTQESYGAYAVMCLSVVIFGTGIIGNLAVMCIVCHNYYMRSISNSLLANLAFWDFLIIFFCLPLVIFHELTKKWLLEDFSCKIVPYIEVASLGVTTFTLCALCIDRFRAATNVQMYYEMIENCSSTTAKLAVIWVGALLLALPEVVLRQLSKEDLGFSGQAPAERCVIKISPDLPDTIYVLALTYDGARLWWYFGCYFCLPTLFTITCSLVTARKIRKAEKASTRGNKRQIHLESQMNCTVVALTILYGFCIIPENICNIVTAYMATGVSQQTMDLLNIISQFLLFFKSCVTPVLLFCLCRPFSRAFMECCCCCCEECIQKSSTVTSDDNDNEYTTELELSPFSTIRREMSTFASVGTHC

EC50 of iCa^2+ increase in HEK293 cells transfected with human GPR37 (Fura-2AM calcium imaging) [1]: 407 nM
EC50 of iCa^2+ increase in mouse peritoneal macrophages (Fluo-4AM calcium imaging) [2]: 302 nM
Binder: TALIDNNATEEILY [prosaposin-derived 14-mer peptide (TX14)]
